Source: patent publication US7167802

Tests used:
[1] = system: MK2 41-364 (unphosphorylated, constitutively active)
[2] = system: MK2 41-400 (unphosphorylated)
Chain of MK2 41-400 (unphosphorylated) (chain, as listed by the source): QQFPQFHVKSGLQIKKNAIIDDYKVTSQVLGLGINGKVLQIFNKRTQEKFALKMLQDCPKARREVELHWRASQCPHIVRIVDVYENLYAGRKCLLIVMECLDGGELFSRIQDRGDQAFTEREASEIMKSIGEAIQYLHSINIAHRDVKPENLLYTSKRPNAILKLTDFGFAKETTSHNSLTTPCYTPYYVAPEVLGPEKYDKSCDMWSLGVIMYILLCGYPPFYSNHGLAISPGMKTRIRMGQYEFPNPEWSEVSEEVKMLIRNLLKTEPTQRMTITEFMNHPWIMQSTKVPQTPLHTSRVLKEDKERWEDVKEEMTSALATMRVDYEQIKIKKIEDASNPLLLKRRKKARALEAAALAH

Activated p38 MAP kinase
Vmax of the MK2 construct after activation by p38 (0.076 without p38) [1]: 11 µmol/min/mg | Vmax of the MK2 construct after activation by p38 (no activity without p38) [2]: 8.9 µmol/min/mg
